Measurements published in patent US20210355205A1 (published 2021).
One block for each binder: values may come before it.

Columns and labels:
recombinant human IL-5 [1] = target: recombinant human IL-5 (human, UniProt P05113 20-134); assay: Biacore, Ab on Protein A chip
recombinant human IL-5 [2] = target: recombinant human IL-5 (human, UniProt P05113 20-134); assay: Biacore
Cynomolgus IL-5 = Cynomolgus IL-5 (cynomolgus monkey); assay: cell-based or functional assay

proportional kd vs parent 3A5.040 (recombinant human IL-5 [1]): 1 ratio
B1: 3A5.211 (antibody, human IgG4 S228P, lambda, name in Kabat numbering, V domains shown)
VH: QVQLQESGPGLVKPSQTLSLTCTVSGGSISNGGYYWSWIRQHPGKGLEWIGYIYYSGSTYYNPSLKSRVTISVDTSKNQFSLKLSSVTAADTAVYYCASLGNWFDYWGQGTLVTVSS
VL: SYVLTQPPSVSVAPGQTARITCGGNNIGSKNVYWYQQKPGQAPVLVVHDDSDRPSGIPERFSGSNSGNTATLTISRVEVGDEADYSCQAWDSSSDHVVFGGGTKLTVLG

proportional kd vs parent 3A5.040 (recombinant human IL-5 [2]): 0.8
B2: 3A5.508 (antibody, human IgG4 S228P, lambda, name in Kabat numbering, V domains shown)
VH: QVQLQESGPGLVKPSQTLSLTCTVSGGSISNGGYYWSWIRQHPGKGLEWIGYIYYSGSTYYNPSLKSRVTISVDTSKNQFSLKLSSVTAADTAVYYCASLANWFDYWGQGTLVTVSS
VL: SYVLTQPPSVSVAPGQTARITCGGNNIGSKNVYWYQQKPGQAPVLVVHDDSDRPSGIPERFSGSNSGNTATLTISRVEVGDEADYSCQVWDSSSDHVVFGGGTKLTVLG

Mean (pM): mean IC50, TF-1.6G4 cell line proliferation assay (Cynomolgus IL-5): 43.8 pM
B3: 3A5.046 (antibody, human IgG4 S228P, lambda)
heavy: QVQLQESGPGLVKPSQTLSLTCTVSGGSISNGGYYWSWIRQHPGKGLEWIGYIYYSGSTYYNPSLKSRVTISVDTSKNQFSLKLSSVTAADTAVYYCASLGNWFDYWGQGTLVTVSSASTKGPSVFPLAPCSRSTSESTAALGCLVKDYFPEPVTVSWNSGALTSGVHTFPAVLQSSGLYSLSSVVTVPSSSLGTKTYTCNVDHKPSNTKVDKRVESKYGPPCPPCPAPEFLGGPSVFLFPPKPKDTLYITREPEVTCVVVDVSQEDPEVQFNWYVDGVEVHNAKTKPREEQFNSTYRVVSVLTVLHQDWLNGKEYKCKVSNKGLPSSIEKTISKAKGQPREPQVYTLPPSQEEMTKNQVSLTCLVKGFYPSDIAVEWESNGQPENNYKTTPPVLDSDGSFFLYSRLTVDKSRWQEGNVFSCSVMHEALHNHYTQKSLSLSLG
light: SYVLTQPPSVSVAPGQTARITCGGNNIGSKNVYWYQQKPGQAPVLVVHDDSDRPSGIPERFSGSNSGNTATLTISRVEVGDEADYSCQVWDSSSDHVVFGGGTKLTVLGQPKAAPSVTLFPPSSEELQANKATLVCLISDFYPGAVTVAWKADSSPVKAGVETTTPSKQSNNKYAASSYLSLTPEQWKSHRSYSCQVTHEGSTVEKTVAPTECS
